According to paper PMC5523840:

Molecular target: T1, TFCP2 (LBP-1c/CP2/LSF) (UniProt Q12800 1-502)
T1 sequence: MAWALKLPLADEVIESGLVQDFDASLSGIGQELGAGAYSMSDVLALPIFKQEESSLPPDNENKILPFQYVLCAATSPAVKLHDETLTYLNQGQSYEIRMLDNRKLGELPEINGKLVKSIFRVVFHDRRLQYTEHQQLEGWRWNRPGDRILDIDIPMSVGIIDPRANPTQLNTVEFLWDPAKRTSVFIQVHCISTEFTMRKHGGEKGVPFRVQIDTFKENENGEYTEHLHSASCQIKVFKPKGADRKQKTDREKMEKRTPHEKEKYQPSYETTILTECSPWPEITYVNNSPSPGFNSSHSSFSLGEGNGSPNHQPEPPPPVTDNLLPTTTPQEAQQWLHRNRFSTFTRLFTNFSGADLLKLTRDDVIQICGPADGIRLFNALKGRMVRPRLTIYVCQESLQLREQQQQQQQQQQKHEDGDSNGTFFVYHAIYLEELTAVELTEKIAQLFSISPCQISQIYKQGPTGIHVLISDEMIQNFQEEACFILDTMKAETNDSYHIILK
Assay: EMSA

B1: rs2830077[A] (dsDNA)
DNA 1: GACACGCTGACTTCCAGGCAAAAGCCAGGCACAAGAGAAGC
DNA 2: GCTTCTCTTGTGCCTGGCTTTTGCCTGGAAGTCAGCGTGTC
For B1, the binding signal was 1 fold band intensity (reference for the C allele, 46% greater).
